Experimental data taken from the RNAGym collection of RNA variant scans (doi:10.7554/elife.80360).

B1: CPEB3 Ribozyme (parent)
chain: GGGGGCCACAGCAGAAGCGUUCACGUCGCGGCCCCUGUCAGAUUCUGGUGAAUCUGCGAAUUCUGCUGU

Variants of: B1
Test: self-cleavage, relative activity (ratio to wild type); higher = more cleavage; co-transcriptional

Variant	self-cleavage
GGGGGCCACAGCAGAAGCGUUCACGUCGCGGCCCCUGUCAUAUUCUGGUGAAUCUACGAAUUCUGCUGU [G41U G56A]	0.581
GGGGGCCACAGCAGAAGCGUUCACGUCGCGGCCCCUGUCACAUUCUGGUGAAUCUGCGAAUUCUGGUGU [G41C C66G]	0.369
GGGGGCCACAGCAGAAGCGUUCACGUCGCGGCCCCUGUCACAUUCUGGUGAAUCUGCGAAUGCUGCUGU [G41C U62G]	0.363
GGGGGCCACAGCAGAAGCGUUCACGUCGCGGCCCCUGUCACAUUCUGGUGAAUCUGCGAAUCCUGCUGU [G41C U62C]	0.365
GGGGGCCACAGCAGAAGCGUUCACGUCGCGGCCCCUGUCAUAUUCUGGUGUAUCUGCGAAUUCUGCUGU [G41U A51U]	0.609
GGGGGCCACAGCAGAAGCGUUCACGUCGCGGCCCCUGUCAUAUUCUGGUGGAUCUGCGAAUUCUGCUGU [G41U A51G]	0.837
GGGGGCCACAGCAGAAGCGUUCACGUCGCGGCCCCUGUCAUAUUCUGGUGAAUCUGCGAAUUCUGCUAU [G41U G68A]	0.931
GGGGGCCACAGCAGAAGCGUUCACGUCGCGGCCCCUGUCAUAUUCUGGUGAAUCUGCGAAUUCUGCUCU [G41U G68C]	0.93
GGGGGCCACAGCAGAAGCGUUCACGUCGCGGCCCCUGUCAUAUUCUGGUGAAUCUGCGAAUUCUGCUUU [G41U G68U]	0.972
GGGGGCCACAGCAGAAGCGUUCACGUCGCGGCCCCUGUCAUAUUCUGGUGAAUCUGCGAAUUCUACUGU [G41U G65A]	0.438
GGGGGCCACAGCAGAAGCGUUCACGUCGCGGCCCCUGUCAUAUUCUGGUGAAUCUGCGAAUUCUUCUGU [G41U G65U]	0.366
GGGGGCCACAGCAGAAGCGUUCACGUCGCGGCCCCUGUCAUAUUCUCGUGAAUCUGCGAAUUCUGCUGU [G41U G47C]	0.967
GGGGGCCACAGCAGAAGCGUUCACGUCGCGGCCCCUGUCAUAUUCUUGUGAAUCUGCGAAUUCUGCUGU [G41U G47U]	0.999
GGGGGCCACAGCAGAAGCGUUCACGUCGCGGCCCCUGUCACAUUCUGGUGAAUCUGCGAAUUCUUCUGU [G41C G65U]	0.327
GGGGGCCACAGCAGAAGCGUUCACGUCGCGGCCCCUGUCACAUUCUGGUGAAUCUGCGAAUUCUACUGU [G41C G65A]	0.426
GGGGGCCACAGCAGAAGCGUUCACGUCGCGGCCCCUGUCAUAAUCUGGUGAAUCUGCGAAUUCUGCUGU [G41U U43A]	0.3
GGGGGCCACAGCAGAAGCGUUCACGUCGCGGCCCCUGUCAUACUCUGGUGAAUCUGCGAAUUCUGCUGU [G41U U43C]	0.357
GGGGGCCACAGCAGAAGCGUUCACGUCGCGGCCCCUGUCAUAGUCUGGUGAAUCUGCGAAUUCUGCUGU [G41U U43G]	0.267
GGGGGCCACAGCAGAAGCGUUCACGUCGCGGCCCCUGUCACAUUCUGGUGAAUCUGCGAAUUCGGCUGU [G41C U64G]	0.426
GGGGGCCACAGCAGAAGCGUUCACGUCGCGGCCCCUGUCACAUUCUGGUGAAUCUGCGAAUUCAGCUGU [G41C U64A]	0.369

Variant	self-cleavage
GGGGGCCACAGCAGAAGCGUUCACGUCGCGGCCCCUGUCACAUUCUGGUGAAUCUGCGAAUUCUGCGGU [G41C U67G]	0.787
GGGGGCCACAGCAGAAGCGUUCACGUCGCGGCCCCUGUCACAUUCUGGUGAAUCUGCGAAUUCUGCAGU [G41C U67A]	0.716
GGGGGCCACAGCAGAAGCGUUCACGUCGCGGCCCCUGUCACAUUCUGGAGAAUCUGCGAAUUCUGCUGU [G41C U49A]	0.988
GGGGGCCACAGCAGAAGCGUUCACGUCGCGGCCCCUGUCACAUUCUGGCGAAUCUGCGAAUUCUGCUGU [G41C U49C]	0.871
GGGGGCCACAGCAGAAGCGUUCACGUCGCGGCCCCUGUCAUAUUCUGGUGAAUCUGCGAAUUUUGCUGU [G41U C63U]	0.691
GGGGGCCACAGCAGAAGCGUUCACGUCGCGGCCCCUGUCAUAUUCUGGUGAAUCUGCCAAUUCUGCUGU [G41U G58C]	0.94
GGGGGCCACAGCAGAAGCGUUCACGUCGCGGCCCCUGUCAUAUUCUGGUGAAUCUGCUAAUUCUGCUGU [G41U G58U]	0.939
GGGGGCCACAGCAGAAGCGUUCACGUCGCGGCCCCUGUCAUAUUCUGGUGAAUCUGCAAAUUCUGCUGU [G41U G58A]	0.935
GGGGGCCACAGCAGAAGCGUUCACGUCGCGGCCCCUGUCAUAUUCUGGUGAAUCUGCGAUUUCUGCUGU [G41U A60U]	0.374
GGGGGCCACAGCAGAAGCGUUCACGUCGCGGCCCCUGUCAUAUUCUGGUGAAUCUGCGAGUUCUGCUGU [G41U A60G]	0.612
GGGGGCCACAGCAGAAGCGUUCACGUCGCGGCCCCUGUCAUAUUCUGUUGAAUCUGCGAAUUCUGCUGU [G41U G48U]	0.99
GGGGGCCACAGCAGAAGCGUUCACGUCGCGGCCCCUGUCAUAUUCUGCUGAAUCUGCGAAUUCUGCUGU [G41U G48C]	0.952
GGGGGCCACAGCAGAAGCGUUCACGUCGCGGCCCCUGUCAUAUUCUGGUGAAUCUGCGAAAUCUGCUGU [G41U U61A]	0.64
GGGGGCCACAGCAGAAGCGUUCACGUCGCGGCCCCUGUCAUAUUCUGGUGAAUCUGCGAACUCUGCUGU [G41U U61C]	0.402
GGGGGCCACAGCAGAAGCGUUCACGUCGCGGCCCCUGUCACAUUCAGGUGAAUCUGCGAAUUCUGCUGU [G41C U46A]	0.921
GGGGGCCACAGCAGAAGCGUUCACGUCGCGGCCCCUGUCAUAUUCGGGUGAAUCUGCGAAUUCUGCUGU [G41U U46G]	0.887
GGGGGCCACAGCAGAAGCGUUCACGUCGCGGCCCCUGUCAUAUUCCGGUGAAUCUGCGAAUUCUGCUGU [G41U U46C]	0.752
GGGGGCCACAGCAGAAGCGUUCACGUCGCGGCCCCUGUCAUAUUCAGGUGAAUCUGCGAAUUCUGCUGU [G41U U46A]	0.947
GGGGGCCACAGCAGAAGCGUUCACGUCGCGGCCCCUGUCACAUUCUGGUGAAUCCGCGAAUUCUGCUGU [G41C U55C]	0.394
